Data set [1] deals with T1, Tn3 resolvase (crystallized) (Tn3 transposon, UniProt P0ADI2 1-185). As to the kind of experiment: X-ray crystallography; Form I, ~3.4 A, one dimer-DNA complex per asymmetric unit; Crystal DNA annealed at 1 mM in TE (Tris-HCl pH 8.0, EDTA), 50 mM NaCl; footprinting: synapses crosslinked with glutaraldehyde, DNase I + 10 mM MgCl2; binding buffers and temperature not in material. The following applies: protein: recombinant; chain copies: 2; label: none for native; 29 bp, 1-nt 5' overhang at each end.
T1 sequence (P0ADI2 whole entry): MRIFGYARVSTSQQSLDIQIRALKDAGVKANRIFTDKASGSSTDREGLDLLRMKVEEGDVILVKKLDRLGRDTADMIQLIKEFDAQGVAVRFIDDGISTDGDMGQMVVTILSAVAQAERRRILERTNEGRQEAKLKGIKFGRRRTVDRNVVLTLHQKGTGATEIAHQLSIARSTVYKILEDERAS

Data set [2] deals with T1, Tn3 resolvase (crystallized). As to the kind of experiment: X-ray crystallography; Form II, ~4.0/4.5/4.0 A, two dimer-DNA complexes per asymmetric unit; Crystal DNA annealed at 1 mM in TE (Tris-HCl pH 8.0, EDTA), 50 mM NaCl; footprinting: synapses crosslinked with glutaraldehyde, DNase I + 10 mM MgCl2; binding buffers and temperature not in material. The following applies: protein: recombinant; chain copies: 2; label: none for native; 25 bp, 2-nt 5' overhang at each end.

B1: Tn3 res site III, Form I duplex (dsDNA)
DNA 1: TCGTGTCTGATATTCGATTTAAGGTACATT
DNA 2: AAATGTACCTTAAATCGAATATCAGACACG
Regarding B1, the binding result in data set [1] is on record as “binds”.

B2: Tn3 res site III, Form II duplex (dsDNA)
DNA 1: ATTGTCTGATATTCGATTTAAGGTACA
DNA 2: ATTGTACCTTAAATCGAATATCAGACA
In the case of B2, in data set [2], the binding result is “binds”.

The values above are taken from paper PMC9943657, “Structural basis for topological regulation of Tn3 resolvase”.
